The values below come from patent US20230287598A1.

For the assay, the target named is Kv1.3 (human (T-cells from human blood donors)) (UniProt P22001). Briefly: cell-based or functional assay.
Sequence of Kv1.3 (human (T-cells from human blood donors)) (P22001 whole entry): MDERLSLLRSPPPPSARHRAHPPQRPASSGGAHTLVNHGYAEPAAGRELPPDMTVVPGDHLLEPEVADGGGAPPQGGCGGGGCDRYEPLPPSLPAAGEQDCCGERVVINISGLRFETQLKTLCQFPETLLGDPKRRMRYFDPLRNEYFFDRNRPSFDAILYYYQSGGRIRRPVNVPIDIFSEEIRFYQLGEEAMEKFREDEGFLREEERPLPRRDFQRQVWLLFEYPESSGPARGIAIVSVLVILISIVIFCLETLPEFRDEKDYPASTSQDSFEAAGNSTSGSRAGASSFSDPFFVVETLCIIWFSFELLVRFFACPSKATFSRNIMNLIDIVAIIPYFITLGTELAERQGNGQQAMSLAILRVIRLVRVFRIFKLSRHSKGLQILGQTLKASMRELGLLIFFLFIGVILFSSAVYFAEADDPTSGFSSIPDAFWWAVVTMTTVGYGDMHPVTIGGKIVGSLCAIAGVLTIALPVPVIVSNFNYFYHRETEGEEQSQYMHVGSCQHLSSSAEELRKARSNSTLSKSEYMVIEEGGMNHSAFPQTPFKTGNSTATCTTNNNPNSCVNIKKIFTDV

Substance “BLV1H12 GLLV 3xG4S OSK1 (K16,D20) (antibody)” showed a TNF-α ELISA (A450), Donor 1, 6 nM IgG of 0.641 A450; a TNF-α ELISA (A450), Donor 1, 17 nM IgG of 0.698 A450; a TNF-α ELISA (A450), Donor 1, 50 nM IgG of 0.556 A450; a TNF-α ELISA (A450), Donor 1, 150 nM IgG of 0.253 A450. The substance also showed a TNF-α ELISA (A450), Donor 2, 6 nM IgG of 0.096 A450; a TNF-α ELISA (A450), Donor 2, 17 nM IgG of 0.094 A450; a TNF-α ELISA (A450), Donor 2, 50 nM IgG of 0.075 A450; a TNF-α ELISA (A450), Donor 2, 150 nM IgG of 0.027 A450. Besides, the TNF-α ELISA (A450), Donor 3, 6 nM IgG turned out to be 0.159 A450; the TNF-α ELISA (A450), Donor 3, 17 nM IgG was 0.144 A450; the TNF-α ELISA (A450), Donor 3, 50 nM IgG is 0.102 A450; the TNF-α ELISA (A450), Donor 3, 150 nM IgG amounted to 0.029 A450.
As for “BLV1H12 GLLV 3xG4S OSK1 (P12,K16,D20) (antibody)”, the TNF-α ELISA (A450), Donor 1, 6 nM IgG was 0.666 A450; the TNF-α ELISA (A450), Donor 1, 17 nM IgG is 0.651 A450; the TNF-α ELISA (A450), Donor 1, 50 nM IgG came to 0.58 A450; the TNF-α ELISA (A450), Donor 1, 150 nM IgG stood at 0.171 A450. This substance also gave a TNF-α ELISA (A450), Donor 2, 6 nM IgG of 0.121 A450; a TNF-α ELISA (A450), Donor 2, 17 nM IgG of 0.108 A450; a TNF-α ELISA (A450), Donor 2, 50 nM IgG of 0.097 A450; a TNF-α ELISA (A450), Donor 2, 150 nM IgG of 0.037 A450. The substance also had a TNF-α ELISA (A450), Donor 3, 6 nM IgG of 0.191 A450; a TNF-α ELISA (A450), Donor 3, 17 nM IgG of 0.168 A450; a TNF-α ELISA (A450), Donor 3, 50 nM IgG of 0.122 A450; a TNF-α ELISA (A450), Donor 3, 150 nM IgG of 0.037 A450.
